Tested on: K4 kissing-loop RNA reporter
Experiment: apparent KD of K4 kissing-loop reporter; higher = weaker reporter binding
Settings: Eterna round: R107
Protocol: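 RNA-MaP round R107: designed RNA switches with theophylline, tryptophan, arginine or FMN aptamers are transcribed on-chip within common flanks. They are titrated with a labelled K4 kissing-loop RNA reporter in RNA-MaP buffer (100 mM Tris pH 7.5, 80 mM KCl, 4 mM MgCl2), without ligand or with the indicated ligand. Median apparent KD per design.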

[1] = input ligand: theophylline 20 uM
[2] = input ligand: tryptophan 2.4 mM
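Note: bound reporter read as fluorescence of individual clusters on recovered sequencing chips by microscopy, with normalized cluster intensities fitted with a binding model.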

Row | Sequence | apparent KD of K4 kissing-loop reporter (input ligand: FMN 200 uM) [nM] | apparent KD of K4 kissing-loop reporter (input ligand: arginine 13.2 mM) [nM] | apparent KD of K4 kissing-loop reporter (input ligand: none) [nM] | apparent KD of K4 kissing-loop reporter [1] [nM] | apparent KD of K4 kissing-loop reporter [2] [nM]
1 | GGUCGCCUGAGCAGUGAUGUUGCAAGGGAAGGAGCGCGUUUUUUCGCAGGUAGGUCGCCCAAAUAAUAAGUUAAACUAGGCGACC [4.)] | 221 | 144 | 149 | 316 | 205
2 | UUAAUUCCGGUGGUGUGUAGAACACAGUUACGAGGACCGGUACGGCCGCCACUCGGAUGCACUUUCAGUGAUGUUGAAAGCAUCA [Same State Tryptophan A GF 1] | 670 | 514 | 643 | 498 | 690
3 | AAGGUAUCUAGAUGCUAGCAACAACUAGAUACCAGCAUCGAAAGAUGCCCUUGGCAGCUAGCAGUGAUGUUGCUAGCAAUAAGAA [Design4] | 152 | 130 | 131 | 158 | 131
4 | UGACUGGAUGGAAGGAGCGCUAAACUCCUAGUGAUGUUAGGGACACGAGACAAAGUCUUGAGGCAGGUAGGUCGCCAUCUAGUCU [FiskerMod 8 - Jieux - Same State - Arginine B] | 379 | 211 | 251 | 250 | 241
5 | UCCUAGGCUCGAAAGAGCCUAGGAUUAACUCAGGAUAUCCGGAAACGGAGAAGGGAGUAACUAGUGAUGUUAGGGAUUCCCUAUU | 208 | 94 | 109 | 87.9 | 92.7
6 | GGGUUUGACGGAGGAUAUGCACUGAGGAGGAGAAUAUAGUGAUGUUAUAUAAGAGGAAGGAGAAGAGUAGAAGGCCGUUGGGUUU [SSFMNB.L] | 124 | 131 | 139 | 165 | 104
7 | AAGUGAUGUUGUAGUGAUGUUGUGAUGUUGCAGGAUAUAUAGUGAUGUAGAAGGGUAUGUACAGAUUUUUUUUUUGAGUGAUGAU [ffdcmullin] | 83.4 | 37.1 | 64.9 | 48.1 | 66.1
8 | AACGUUUUGAGAAGGAGCGCGUUAAGCAGUGAUGUUGCUGUAUUUUAUCCAAUUCAUAUAUCGCAGGUAGGUCGCUCAAUACGUA [JR_Nu_SSArginiB_Sub027] | 574 | 496 | 557 | 534 | 432
9 | UGGAGUUGACGAAAAGUCAACUCCCGAGAAGGAGCGGACGAAAGUCCAGGUAGGUCGCUCGCUACCAGUGAUGUUGGUACAUAAA | 101 | 153 | 130 | 147 | 109
10 | GCACGUACCCGAAGGAGCGUGCAAGAAUCGUAGUGAUGUUACGGAGAGUGUCACGCCGUCGCACAGGUAGGUCGCGGGUACGUGC | 78.3 | 80.3 | 67.5 | 63.2 | 61.4
11 | UGUACCGAGUCAGGAUAUGGCGUCGAAAGACGAAUCUUAGUGAUGUUAGGGAUCUGCGAAAGCAGUUCAGAAGGGACUUGGUACU [FmnBS 26 U37+U67] | 349 | 427 | 506 | 556 | 515
12 | AAAUUCUUUUUUUUAUAUAACAAUUCAGAAGGAGCGUGGUAGAACACAGGUAGGUCGCUGAAUAUAAGACUAGUGAUGUUAGUAA [JR_SSArginiA_Sub010] | 153 | 192 | 203 | 214 | 153
13 | CGUGAAGACCAGAGGUGAUGUAUAGUAUCGCGAGGACCGGUACGGCCGCCACUCGUGAAGAGAAAGGAGUGAUGUUCCGUAAUGG [C12] | 246 | 239 | 312 | 326 | 107
14 | AUAGAAAAGUGGCACCCUCACUAAAACAGUCGAGGACCGGUACGGCCGCCACUCGCGCGCUUUAGUGAUGUUAAAGCUAUGCAAA | 407 | 358 | 380 | 407 | 105
15 | UGGAGUUGACGAAAAGUCAACUCCUGAGAUACCAGUGACGAAAGUCACCCUUGGCAGCUCACUGCCAGUGAUGUUGGAAGAUAAA [whbob_SS_Theo_A_w46] | 208 | 149 | 438 | 289 | 585
16 | UGACUGGACUGAAGGAGCGUUGAAGGAGCGUAAGGAGUGAUGUUCCAUACAGGUAGGUCGCAGCAGGUAGGUCGCAGUCUAGUCU [ArgBS 26 #DoubleAptamer #SwitchBubble] | 204 | 245 | 229 | 171 | 281
17 | GCAAGAGAGUGAUGUUGUUUUGAUCAGGGCAAGGAUAUGCUAUAUAGCAGAAGGUGCCGUUUUCUGCUGGCUUUCGUUACCCAUU [theeternabot_exclusion_KL_FMN_A_6] | 750 | 605 | 865 | 990 | 708
18 | UGUCAUUGGUCGGCCGCCACUAGACGGAUCAUAAGAUCUGUCAAUAAGAGUGAUGUUCUAAAUAAUAGGACCGGGACCGAUGACU [TrypBS 27 #SwitchBubble #StaticStem] | 988 | 653 | 907 | 681 | 647
19 | AAUAUAGUGAUGUUAUAUAAGAAGGAGUUACGAGGACCGGUACGGCCGCCACUCGAAACGAGUGAGGAUUUGGGAGAUUGGGUUC [SSTryptA.L] | 465 | 539 | 393 | 302 | 283
20 | UACAAACGUAGUGAUGUUACGUACUCUGAUACCAGACAACUCUAAGUCCCUUGGCAGCAGUCAUUUUGCUUAUUAUUUUCUCAAA [JR_ExcTheophyA_Sub018] | 86.5 | 102 | 92 | 98.5 | 75.2
21 | CCUUCUCUUGAUAGUGAUGUUAUCAAGGGCAAGGAUAUCAUCUUAAUGAGAAGGUGUCCUUGAUAACAUGGAGGUCUGAAACAGA [Omei KL FMN A Exc C v5] | 108 | 186 | 229 | 321 | 335
